Assay type in all cases: cell-based
The subject of series [1] is NK cells. Nature of the series: pSTAT5 concentration-response in human LRS-derived PBMC samples (flow cytometry): NK cells. To be noted: Table 4, 45 min. How it is done:
(§1) These studies were performed at PrimityBio LLC (Fremont, Calif.). […] Staining panel for flow cytometry study of LRS-derived PBMC samples include markers for Effector T cells (Teff: CD3+, CD4+, CD8+, CD127+), NK cells (CD3-, CD16+), and Regulatory T cells (Treg: CD3+, CD4+, CD8-, IL-2Rα+, CD127-1).
(§2) The EC50 values (pg/mL) was calculated from dose response curves generated from MFI plots. […]
Background: In flow cytometry, cells or beads pass a laser one at a time.

The test system of series [2] is Treg cells. The series is described as follows: pSTAT5 concentration-response in human LRS-derived PBMC samples (flow cytometry): Treg cells. Particulars: Table 4; for EC50 for pSTAT5 signaling, Treg Cells: human LRS samples, 45 min; for CD8/Treg ratio: ratio of pSTAT5 EC50 values. How it is done: as §1
The EC50 values (pg/mL) was calculated from dose response curves generated from MFI plots.
These studies were performed at PrimityBio LLC (Fremont, Calif.). […] Staining panel for flow cytometry study of LRS-derived PBMC samples include markers CD4, CD4+ memory central, CD4+ memory effect, CD4+ memory T cells, CD4+ Naive T cells, CD4+ T cells, CD8, CD8+ memory central, CD8+ memory effect, CD8+ memory T cells, CD8+ Naive T cells, CD8+ T cells, NK cells, and T regulatory cells.
Conjugates of Table 12 were synthesized by modification of SEQ NO. 1. These studies were performed at PrimityBio LLC (Fremont, Calif.).
The EC50 values (pg/ml) were calculated from dose response curves generated from the MFI plots.

Series [3] relates to CD8+ T cells. Nature of the series: pSTAT5 concentration-response in human LRS-derived PBMC samples (flow cytometry): CD8+ T cells. To be noted: Table 4, 45 min. How it is done:
as §1, §2

Series [4] has as its system CTLL-2. Nature of the series: CTLL-2 proliferation. Particulars: Table 4.
Series [5] deals with Human whole blood. Nature of the series: Whole blood cytokine release assay (MSD U-plex: IFN-γ, IL-4, IL-5, IL-6, IL-8, TNF-α). Particulars: for IFN-γ level, D1 / IL-6 level, D1 / IL-8 level, D1 / TNF-α level, D1 / IFN-γ level, D2 / IL-6 level, D2 / IL-8 level, D2 / TNF-α level, D2 / IFN-γ level, D3 / IL-6 level, D3 / IL-8 level, D3 / TNF-α level, D3 / IFN-γ level, D4 / IL-6 level, D4 / IL-8 level, D4 / TNF-α level, D4 / IFN-γ level, D5 / IL-6 level, D5 / IL-8 level, D5 / TNF-α level, D5 / IFN-γ level, D6 / IL-6 level, D6 / IL-8 level, D6 / TNF-α level, D6: 24 h, control conditions, conc. ug/ml: IgG4 iso 50, mouse IgG1,κ 100, PEM 90, NIVO 127, coated anti-CD3 100; for IL-4 level / IL-5 level: 90 ug/ml. Further details: unit not given here. Here is the method: Cytokines released from the whole blood after treatment into the supernatant were measured using the Meso Scale Discovery (MSD) U-plex kit for six analytes (IFN-γ, IL-4, IL-5, IL-6, IL-8, TNF-α).
Blood in heparin tubes from 6 healthy donors were obtained from The Scripps Research Institute (TSRI; San Diego, Calif.) blood donor service. Samples were tested on the day of the collection; donors 1-3 on one day and donors 4-6 on another day.
A volume of 180 μL of prediluted whole blood was seeded onto a 96-well tissue culture plate. Then, 20 μL of 10× final test concentration of compounds was added to the assay plate. […] In addition, positive and negative controls were included to show the detection and specification of the assay: 100 μg/mL pre-coated Ultra LEAF mouse anti-human CD3 were used as the positive controls for the assay. […] […] No treatment also served as a negative control for the assay.
After adding the compound(s) to the well, the blood was incubated at 37° C. After centrifugation of the samples, supernatant was collected 24 h post treatment and stored at −80° C. before analysis. The human cytokines ([…], TNF-α, IL-8, IL-6, IL-5, IL-4) released from the assay were quantified with the MSD U-plex kit. The detection limit of each plate is reported from the MSD software, Discovery workbench. Each plate has a slightly different detection limit.

Series [6] deals with CD4+ T cells co-cultured with allogeneic monoDC. The series is described as follows: Allogeneic human mixed lymphocyte reaction (MLR) assay, IFN-γ secretion. To be noted: single agents, 5 days of co-culture. From the text: The allogeneic human mixed lymphocyte reaction (MLR) assay was used to evaluate the ability of Compound B (IL-2_P65[AzK_L1_PEG30kD]-1) to enhance TCR activation as a single agent and in combination with a checkpoint inhibitor (nivolumab or pembrolizumab), as a model for cytolytic response to tumor cells presenting specific antigens or neoantigens.
Peripheral blood mononuclear cells (PBMCs) from two normal, healthy donors were used for each assay run. MonoDCs were generated by culturing monocytes isolated from PBMCs using a negative monocyte selection kit (Stemcell) in vitro for 7 days, involving addition of 1,500 IU/mL of IL-4 and 1,500 IU/mL of GM-CSF. The culture medium was replaced on Days 3 and 5. MonoDCs were collected on Day 7. On that day, CD4+ T cells were isolated from a different donor with a negative selection kit (Stemcell). […] Each run was set up in 3 replicates for each treatment condition. After 5 days of co-culture, IFN-γ secretion in culture supernatants was analyzed employing an enzyme-linked immunosorbent assay (ELISA) kit (Abcam; catalog #Ab46025). Clinical grade nivolumab was used to generate the data shown in FIG. 13, and research grade nivolumab (Selleckchem) was used to generate the data shown in FIG. 14. […] Data shown in FIGS. 12, 13, and 14 represent the mean of 3 replicates standard error of the mean from one donor pair.

Take “F42_30 kD: IL-2 (SEQ ID NO: 4) PEGylated with 30 kD PEG via AzK at F42; presumably SEQ ID NO: 27”: the “EC50 for pSTAT5 signaling, NK Cells” value in series [1] is 16397 pg/mL. For the same substance, in series [2], the “EC50 for pSTAT5 signaling, Treg Cells” value worked out at 36856 pg/mL and the CD8/Treg ratio stood at 2.9. Further, in series [3], the “EC50 for pSTAT5 signaling, CD8+ T Cells” value worked out at 107944 pg/mL. Further, in series [4], the “EC50, CTLL-2 proliferation” value is recorded as 123,936 pg/mL.

For the substance “K43_30 kD: IL-2 (SEQ ID NO: 4) PEGylated with 30 kD PEG via AzK at K43; presumably SEQ ID NO: 28”, the “EC50 for pSTAT5 signaling, NK Cells” value in series [1] amounted to 9004 pg/mL. For the same substance, in series [2], the “EC50 for pSTAT5 signaling, Treg Cells” value worked out at 4797 pg/mL and the CD8/Treg ratio stood at 10.5. Moreover, the “EC50 for pSTAT5 signaling, CD8+ T Cells” value in series [3] stood at 50504 pg/mL.

For the substance nivolumab [reference compound], in series [5] (donor D1), the “IFN-γ level, D1” value was 29.77; the “IL-6 level, D1” value stood at 1.28; the “IL-8 level, D1” value was 20.59; the “TNF-α level, D1” value was determined as 2.35. For the same substance, in series [5] (donor D2), the “IFN-γ level, D2” value is reported as 9.34; the “IL-6 level, D2” value came out at 0.48; the “IL-8 level, D2” value stood at 7.68; the “TNF-α level, D2” value came to 0.44. For the same substance, in series [5] (donor D3), the “IFN-γ level, D3” value was found to be 6.61; the “IL-6 level, D3” value was 1.09; the “IL-8 level, D3” value is reported as 7.95; the “TNF-α level, D3” value came out at 1.33. Besides, in series [5] (donor D4), the “IFN-γ level, D4” value was found to be 7.56; the “IL-6 level, D4” value turned out to be 0.59; the “IL-8 level, D4” value is given as 22.61; the “TNF-α level, D4” value was 1.21. Besides, in series [5] (donor D5), the “IFN-γ level, D5” value is recorded as 256.75; the “IL-6 level, D5” value is given as 3.29; the “IL-8 level, D5” value is given as 67.38; the “TNF-α level, D5” value is 4.89. Besides, in series [5] (donor D6), the “IFN-γ level, D6” value is given as 9.51; the “IL-6 level, D6” value is 0.62; the “IL-8 level, D6” value was determined as 19.68; the “TNF-α level, D6” value is listed as “BDL”. The “release of IFN-γ” value in series [6] is “induced the release of IFN-γ in a concentration-dependent manner”.

As to pembrolizumab [reference compound], in series [5] (donor D1), the IL-4 level was determined as 0.10; the IL-5 level is recorded as 1.03; the “IFN-γ level, D1” value was found to be 52.78; the “IL-6 level, D1” value is 1.09. In series [5] (donor D1), the “IL-8 level, D1” value was found to be 22.01 and the “TNF-α level, D1” value turned out to be 2.33. In series [5] (donor D2), the IL-4 level was determined as 0.03; the IL-5 level is 0.72; the “IFN-γ level, D2” value is 9.62; the “IL-6 level, D2” value worked out at 0.39. Besides, in series [5] (donor D2), the “IL-8 level, D2” value is recorded as 8.48 and the “TNF-α level, D2” value is on record as 0.68. Besides, in series [5] (donor D3), the IL-4 level came out at 0.03; the IL-5 level is reported as 0.79; the “IFN-γ level, D3” value came to 8.80; the “IL-6 level, D3” value amounted to 0.92. In series [5] (donor D3), the “IL-8 level, D3” value is 11.36 and the “TNF-α level, D3” value is reported as 1.67. In series [5] (donor D4), the IL-4 level was 0.09; the IL-5 level entry is “BDL”; the “IFN-γ level, D4” value is listed as 11.71; the “IL-6 level, D4” value is listed as 0.65. In series [5] (donor D4), the “IL-8 level, D4” value was 23.29 and the “TNF-α level, D4” value is reported as 0.97. In series [5] (donor D5), the IL-4 level entry was “BDL”; the IL-5 level entry is given as “BDL”; the “IFN-γ level, D5” value is reported as 301.71; the “IL-6 level, D5” value was found to be 8.95. For the same substance, in series [5] (donor D5), the “IL-8 level, D5” value turned out to be 95.5 and the “TNF-α level, D5” value is 5.88. For the same substance, in series [5] (donor D6), the IL-4 level entry was “BDL”; the IL-5 level result is given as “BDL”; the “IFN-γ level, D6” value is 10.08; the “IL-6 level, D6” value is given as 1.06. Also, in series [5] (donor D6), the “IL-8 level, D6” value was found to be 28.32 and the “TNF-α level, D6” value is given as 1.43. For the same substance, the “release of IFN-γ” value in series [6] was “induced the release of IFN-γ in a concentration-dependent manner”.

Values taken from patent US20210046160A1 (Synthorx, Inc., priority 2019, published 2021).
